Results published in the Human Domainome abundance scans (Beltran et al. 2025).
± gives the uncertainty stated by the source.

B1: Kinesin-like protein KIF16B, residues 1213 to 1273; numbered along this chain, Q96L93 (parent)
chain: ETWTVFRRYSRFREMHKTLKLKYAELAALEFPPKKLFGNKDERVIAERRSHLEKYLRDFFS

Variants of: B1
Test: abundance fitness (aPCA) (normalised: wild type 0, dead -1); higher = more abundant; growth selection in yeast, the domain comes from the species named
Conditions: Homo sapiens

Abundance fitness: each site, then its substitutions
R57: D -0.712 ± 0.16, Q -0.776 ± 0.14, Y -0.437 ± 0.18, H -0.6 ± 0.25, A -0.444 ± 0.085, M -0.468 ± 0.12, T -0.309 ± 0.06, E -0.636 ± 0.11, C -0.239 ± 0.07, V -0.412 ± 0.093, I -0.388 ± 0.095, W -0.447 ± 0.11, N -0.395 ± 0.11, K -0.094 ± 0.11, P -0.087 ± 0.094, F -0.33 ± 0.1, L -0.368 ± 0.059, S -0.427 ± 0.063
Y55: D -0.613 ± 0.092, A -0.007 ± 0.082, N -0.249 ± 0.13, C 0.265 ± 0.088, R 0.396 ± 0.055, E -0.942 ± 0.19, W 0.281 ± 0.07, L 0.182 ± 0.058, S 0.12 ± 0.064, H -0.116 ± 0.12, M 0.185 ± 0.082, K 0.481 ± 0.066, G 0.021 ± 0.054, P -0.19 ± 0.14, V -0.082 ± 0.065
F59: R -0.461 ± 0.07, M -0.277 ± 0.08, G -0.573 ± 0.076, T -0.489 ± 0.11, C -0.429 ± 0.14, L -0.157 ± 0.068, Q -0.51 ± 0.18, E -0.627 ± 0.11, K -0.204 ± 0.12, V -0.121 ± 0.06, W -0.005 ± 0.075, A -0.607 ± 0.11, S -0.994 ± 0.18, I -0.031 ± 0.41
L56: M -0.191 ± 0.081, V -0.019 ± 0.053, I -0.011 ± 0.087, P -0.308 ± 0.13, T -0.001 ± 0.081, E -1.2 ± 0.3, K -0.567 ± 0.14, R -0.584 ± 0.066, Y -0.263 ± 0.19, S -0.453 ± 0.043, D -0.343 ± 0.13, C 0.032 ± 0.08, Q 0.163 ± 0.094, N -0.518 ± 0.46
K54: N -0.127 ± 0.11, M -0.327 ± 0.07, F -0.664 ± 0.097, V -0.289 ± 0.069, E -0.298 ± 0.14, I -0.314 ± 0.14, H -0.532 ± 0.41, D -0.489 ± 0.16, G -0.171 ± 0.06, T -0.013 ± 0.071, P -0.945 ± 0.39, A -0.251 ± 0.076, W -0.476 ± 0.077, L -0.256 ± 0.058, S -0.174 ± 0.035, C -0.785 ± 0.42, R 0.076 ± 0.043
F60: Q -1.01 ± 0.33, G -0.647 ± 0.088, M -0.256 ± 0.097, S -0.585 ± 0.1, C -0.263 ± 0.15, W 0.153 ± 0.073, P -0.759 ± 0.14, E -1 ± 0.23, L -0.087 ± 0.064, I -0.143 ± 0.28, V -0.165 ± 0.086, A -0.729 ± 0.11, R -0.565 ± 0.097
S61: V -0.029 ± 0.099, Y -0.81 ± 0.4, M -0.073 ± 0.19, C -0.412 ± 0.32, L -0.038 ± 0.36, A -0.263 ± 0.23, T -0.296 ± 0.16, K -0.025 ± 0.087, Q 0.11 ± 0.17, G -0.09 ± 0.18, N -0.23 ± 0.11, P -0.337 ± 0.1, R 0.143 ± 0.14
D58: A 0.087 ± 0.083, H 0.09 ± 0.11, F 0.049 ± 0.25, S -0.182 ± 0.086, P 0.09 ± 0.084, W 0.204 ± 0.054, Q -0.153 ± 0.13, K 0.241 ± 0.081, G 0.03 ± 0.053, C -0.024 ± 0.17, N -0.149 ± 0.21, I 0.012 ± 0.19, M 0.056 ± 0.069, V -0.048 ± 0.061, L -0.075 ± 0.08, R 0.161 ± 0.049
